Laboratory results: patent publication US20240043504A1 (published 2024)

B1: mAb10965 (antibody, V domains shown)
VH: EVQLVESGGGLIQPGGSLRLSCAASVFTVSYNYMSWVRQAPGKGLEWVSVIYSGGSTYYADSVKGRFTISRDNSKNTLYLQMNSLRAEDTAVYYCARALPGWGGSFEYFDYWGQGTLVTVSS
VL: not shown
B2: mAb10930 (antibody, V domains shown)
VH: EVQLVESGGGLVQPGRSLRLSCAASGFTFDDYAMYWVRQAPGKGLEWVSGISWNSGSIGYADSVKGRFTISRDNAKNSLYLQMNSLRAADTALYYCAKDKDWNSRGYYYYGMDVWGQGTTVTVSS
VL: not shown
B3: mAb10923 (antibody, V domains shown)
VH: QVQLVQSGAEVKKPGASVKVSCKASGYTFINYYIHWVRQAPGQGLEWMGWINPNSGGTNYAQKFQGRVTMTRDTSISTAYMELSRLRSDDTAVYYCAIITIFGVVTWFDPWGQGTLVTVSS
VL: not shown
B4: mAb10969 (antibody, V domains shown)
VH: QVQLVESGGGVVQPGRSLRLSCAASGFTFSSYAMHWVRQAPGKGLEWVAVISYDGSNKYYADSVKGRFTISRDNSKNTLYLQMNSLRAEDTAVYYCARDGRTITMVRGVIDDAFDIWGQGTMVTVSS
VL: not shown
B5: mAb10921 (antibody, V domains shown)
VH: EVQLVESGGGLVQPGGSLRLSCAASGITVSSNYMSWVRQAPGKGLEWVSVIYSGGSTFYADSVKGRFTISRHNSKNTLYLQMNSLRAEDTAVYYCARERNFDAFDIWGQGTMVTVSS
VL: DIQMTQSPSSVSASVGDRVTITCRASQGISSWLAWYQQKPGKAPKLLIYAASSLQSGVPSRFSGSGSGTDFTLTISSLQPEDFATYYCQQANSFPLFTFGPGTKVDIKR
B6: mAb10957 (antibody, V domains shown)
VH: EVQLVESGGGLVQPGGSLRLSCAASGVTVSSNYMSWVRQAPGKGLEWVSVIYSGGSTFYADSVKGRFTISRDNSKNTLFLQMNSLRIEDTAVYYCARDLGPYGMDVWGQGTTVTVSS
VL: DIQLTQSPSFLSASVGDRVTITCRASQGISSYLAWYQQKPGKAPKLLIYAASTLQSGVPSRFSGSGSGTQFILTISSLQPEDFATYYCQQLNSYPGFTFGPGTKVDIKR
B7: mAb10939 (antibody, V domains shown)
VH: EVQLVESGGGLVQPGGSLRLSCAASGLTVSSNYMNWVRQVPGKGLEWVSVIYSGGSKFYVDSVKGRFTISRHNSKNTLYLQMNSLRPEDTAVYYCTRDAQYYGMDVWGQGTTVTVSS
VL: DIQMTQSPSSLSASVGDRVTITCRASQSISTYLHWYQQKPGEAPKLLIYAASSLQSGVPSRFSGSGSGTDFTLTISSLQPEDFATYYCQQSYSTPPEIFGQGTKLEIKR
B8: mAb10956 (antibody, V domains shown)
VH: EVQLVESGGGLVQPGGSLRLSCAASGLTVSSNYMSWVRQAPGKGLEWVSVIYSGGSTFYADSVKGRFTISRDNSKNTLYLQMNSLRAEDTAVYYCARDLIKYGMDVWGQGTTVTVSS
VL: not shown
B9: mAb10966 (antibody, V domains shown)
VH: EVQLVESGGGLVQPGGSLRLSCAASGLTVSSNYMSWVRQAPGKGLEWVSVIYSGGSTFYADSVKGRFTISRDNSKNTLYLQMNSLRPEDTAVYYCAREGRIAATGYGMDVWGQGTTVTVSS
VL: not shown
B10: mAb10936 (antibody, V domains shown)
VH: QVQLVESGGGVVQPGRSLRLSCAASGFTFRNYGMHWVRQAPGKGLEWVSVIWYDGSNRYYADSVKGRFTISRDTSKNTLYLQMNSLRAEDTAVYYCARDPPITGTTGGDAFDIWGQGTMVTVSS
VL: not shown
B11: mAb10920 (antibody, V domains shown)
VH: QVQLVESGGGVVQPGRSLRLSCAASGFTFSYYGMHWVRQAPGKGLEWVAVIWYDGSNKFYADSVKGRFTISRDNSKNTLYLQMNSLRAEDTAVYYCAAARPGYYYGMDVWGQGTTVTVSS
VL: DIQMTQSPSSLSASVGDRVTITCRASQGISNYLAWFQQKPGKAPNSLIYAASSLQRGVPSKFSGSGSGTDFTLTISSLQPEDFATYYCQQYNSYPRTFGQGTKVEIKR
B12: mAb10964 (antibody, V domains shown)
VH: QVQLQESGPGLVKPSETLSLTCTVSGGSINNYYWIWIRQPPGKGLEWIGYIYHSGSTNYNPSLKSRVTISVDTSKNQFSLKVSSVTAADTAVYYCANMVRGVYEDDYWGQGTLVTVSS
VL: DIQMTQSPSSLSASVGDRVTITCRASQSISNYLNWYQQKPGKAPKLLIFAASSLRSGVPSRFSGSGSGTDFTLTISSLHPEDFATYYCQQNYNTPLTFGPGTKVDIKR
B13: mAb10932 (antibody, V domains shown)
VH: EVQLVESGGGLVQSGGSLRLSCAASGLTVSSNYMSWVRQAPGKGLEWVSVIYSGGSTFYSDSVKGRFTISRHNSKNTLYLQMNSLRAEDTAVYYCARARGDAFDIWGQGTMVTVSS
VL: not shown
B14: mAb10934 (antibody, V domains shown)
VH: not shown
VL: DIQMTQSPSSLSASVGDRVTITCQASQDIWNYINWYQQKPGKAPKLLIYDASNLKTGVPSRFSGSGSGTDFTFTISSLQPEDIATYYCQQHDDLPPTFGQGTKVEIKR
B15: mAb10938 (antibody, V domains shown)
VH: EVQLVESGGGLVQPGGSLRLSCAVSGFTVSSNYMSWVRQAPGKGLEWVSLIYSGGSTFYADSVKGRFTISRHNSKNTLYLQMNSLRAEDTAVYYCAREGGYSYDYNYWGQGTLVTVSS
VL: DIQMTQSPSSLSASVGDRVTITCQASQDIRNYLNWYQQKPGKAPKLLIYDASNLETGVPSRFSGIGSGTDFTFTISSLQPEDIATYYCQQYDNLPITFGQGTRLEIKR
B16: mAb10935 (antibody, V domains shown)
VH: EVQLVESGGGLVQPGGSLRLSCAASGFTVSSNYMSWVRQAPGKGLEWVSLIYSGGSTYYADSVKGRFTISRHNSKNTLYLQMNSLRSEDTAVYYCARVPLGDYYYGMDVWGQGTTVTVSS
VL: DIQMTQSPSSLSASVGDRVTITCQASQDINKYLNWYQQKPGKAPKLLIYDASNLETGVPSRFSGSGSGTDFTFTISSLQPEDIATYYCQQSDNLPLTFGGGTKVEIKR
B17: mAb10955 (antibody, V domains shown)
VH: EVQLVESGGGLVQPGGSLRVSCAASGFTVSRNYMSWVRQAPGKGLEWVSVIYSGGSTFYADSVKGRFTISRDNSKNTLYLQMNSLRAEDTAIYYCARYIPRFDPWGQGTLVTVSS
VL: DIQMTQSPSSLSASVGDRVTITCQASQDISNYLNWFQQKPGRAPKLLIYDASNLETGVPSRFSGSGSGTDFTFTISSLQPEDIATYYCQQYDNLPITFGQGTRLEIKR
B18: mAb10967 (antibody, V domains shown)
VH: EVQLVESGGGLVQPGGSLRLSCAASGFTVSSNYMSWVRQAPGKGLEWVSVIYPGGSTFYADSVKGRFTISRDNSKNTLYLQMNSLRAEDTAVYYCARDQRDFAWGQGTLVTVSS
VL: DIQMTQSPSSLSASVGDRVTITCQASQDISNYLNWYQQKPGKAPKLLIYDASNLETGVPSRFSGSGSGTDFTFTISGLQPEDIATYYCQQYDNLPPTFGQGTRLEIKR
B19: mAb10937 (antibody, V domains shown)
VH: QITLKESGPTLVKPTQTLTLTCTFSGFSLSTNVVGVGWIRQPPGKALEWLALIYWNDDKRYSPSLKSRLTITKDTSKNQVVLTMTNMDPVDTATYYCAHGPTGDYFDYWGQGTLVTVSS
VL: not shown
B20: mAb10982 (antibody, V domains shown)
VH: EVQLVESGGGLVQPGGSLRLSCAASGLTVSSNYMSWVRQAPGKGLEWVSVIYSGGTTYYADSVKGRFTISRHNSKNTLSLQMNSLRAEDTAVYYCARGEGANYYGMDVWGQGTTVTVSS
VL: QSVLTQPPSVSGAPGQRVTISCTGSSSNIGTGYDVHWYQQLPGTAPKLLIYGNSNRPSGVPDRFSGSKSGTSASLAITGLQAEDEADYYCQSYDSSLSGYVVFGGGTKLTVLG
B21: mAb10985 (antibody, V domains shown)
VH: EVQLVESGGGLVQPGRSLRLSCAASGFTFDDYAMHWVRQAPGKGLEWVSGISWNRGSIGYADSVKGRFTISRDNAKNSLYLQMSSLRAEDTALYYCAKDGERWDSVVVPSARNGMDVWGQGTTVTVSS
VL: QSVLTQPPSVSGAPGQRVTISCTGSSSNIGAGYDVHWYQQLPGTAPKLLIYGNSNRPSGVPDRFSGSKSGTSASLAITGLQAEDEADYYCQSYDSSLSGSYVFGTGTKVTVLG
B22: mAb10986 (antibody, V domains shown)
VH: EVQLVESGGGLVQPGGSLRLSCAASEFTVSSNYMSWVRQAPGKGLEWVSVIYSGGSTFYADSVKGRFTISRDNSKNTLYLQMNSLRAEDTAVYYCARALPYGDLHFDYWGQGTLVTVSS
VL: QSVLTQPPSVSGAPGQRVTISCTGSSSNIGTGYDVHWYQQLPGTAPKLLIYGNTNRPSGVPDRFSGSKSGTSASLAITGLQAEDEADYYCQSYDSSLSDSYVFGTGTKVTVLG
B23: mAb10984 (antibody, V domains shown)
VH: EVQLVESGGGLVQPGGSLRLSCAASGLTVNRNYMSWVRQAPGKGLEWVSLIYSGGSTYYADSVKGRFTISRDNSKNTLYLQMNSLRLEDTAVYYCARGELGIPYGMDVWGQGTTVTVSS
VL: QSVLTQPPSVSAAPGQKVTISCSGSSSNIGNNYVSWYQQLPGTAPKLLIYDNNKRPSGIPDRFSGSKSGTSATLGITGLQTGDEADYYCGTWDSSLSAGVFGGGTKLTVLG
B24: mAb10971 (antibody, V domains shown)
VH: EVQLVESGGGLIQPGGSLRLSCAASGVTVSSNYMSWVRQAPGKGLEWVSVIYSGGSTFYSDSVKGRFSISRDNSKNTLYLQMNSLRAEDTAVYYCARDLYYYGMDVWGQGTTVTVSS
VL: DIQLTQSPSFLSASVGDRVTITCRASQGISTYLAWYQQKPGKAPKLLIYAASTLQSGVPSRFSGSGSGTEFTLTISSLQPEDFATYYCQQLDSYPGLTFGGGTKVEIKR
B25: mAb10989 (antibody, V domains shown)
VH: QVQLVQSGAEVKKPGASVKVSCKASGYIFTGYYMHWVRQAPGQGLEWMGWINPNSGGANYAQKFQGRVTLTRDTSITTVYMELSRLRFDDTAVYYCARGSRYDWNQNNWFDPWGQGTLVTVSS
VL: QSALTQPASVSGSPGQSITISCTGTSSDVGTYNYVSWYQQHPGKAPKLMIFDVSNRPSGVSDRFSGSKSGNTASLTISGLQAEDEADYYCSSFTTSSTVVFGGGTKLTVLG

How the values were obtained:
SARS-COV-2 RBD-mFc = SARS-COV-2 RBD-mFc (SARS-CoV-2); experiment: Luminex beads
[1] = biological target: SARS-CoV-2 RBD extracellular domain expressed with a C-terminal mouse IgG2a (SARS-COV-2 RBD-mFc) (SARS-CoV-2)

| Binder | binding result (SARS-COV-2 RBD-mFc) | Kd [1] | t1/2 [1] |
| --- | --- | --- | --- |
| B1 | binds | – | – |
| B2 | binds | – | – |
| B3 | binds | – | – |
| B4 | binds | – | – |
| B5 | binds | – | – |
| B6 | – | ≤ 0.0279 nM | ≥ 19.2 h |
| B7 | binds | – | – |
| B8 | – | 0.395 nM | 1.3 h |
| B9 | binds | – | – |
| B10 | binds | – | – |
| B11 | binds | – | – |
| B12 | binds | – | – |
| B13 | binds | – | – |
| B14 | binds | – | – |
| B15 | binds | – | – |
| B16 | binds | – | – |
| B17 | – | 0.0592 nM | 8.23 h |
| B18 | binds | – | – |
| B19 | binds | – | – |
| B20 | binds | – | – |
| B21 | binds | – | – |
| B22 | binds | – | – |
| B23 | binds | – | – |
| B24 | binds | – | – |
| B25 | binds | – | – |
